Tests used:
[1] = molecular target: surface-immobilized biotinylated microtubules, Q2XVP4;Q767L7; assay: fluorescence intensity of GFP-tagged MAP9 on MTs (fluorescence microscopy); conditions: 100 mM salt (stated for panel d); parent: est. 2.8; read off a plot
[2] = molecular target: surface-immobilized biotinylated microtubules, Q2XVP4;Q767L7; assay: fluorescence intensity of GFP-tagged MAP9-MTBD on surface-immobilized MTs (fluorescence microscopy); conditions: 100 nM MAP9 construct (stated for panel h and Extended Data Fig. 6b); parent: est. 0.72; read off a plot

Row | Substance | response [1] | response [2]
1 | MAP9-MTBD (Human MAP9 (302–647)::GFP::strepII) (from UniProt Q49MG5) LHEMHRIK>LAEMHAIK; …>…; LKEKNRK>LAEKNAK; FKQKEKEK>FAQKEAEK; ERIERKQ>EAIERAQ | 2.8 a.u. | 
2 | MAP9-MTBD (Human MAP9 (302–647)::GFP::strepII) (from UniProt Q49MG5) Y429A; W432A; K436A; F473A; W476A; K480A |  | 0.05 a.u.

— publication doi:10.1101/2025.11.17.688911
